B1: TPR t1 (parent)
chain: GACCAAUCUGCCCUCAGAGCUCGAGAACAUCUUCGGAUGCAGAGGAGGCAGGCUUCGGUGGCGCGAUAGCGCCAACGUCCUCAACCUCCAAUGCAUCCCACCACAUGAUGAUGCCUGAAGAGCCUUGGUUUUUUG

Variants of: B1
Experiment: polymerase ribozyme fitness, log enrichment relative to wild type (log ratio); higher = more active; in vitro selection for triplet polymerase activity
In short: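 Mutant libraries of each subunit of a heterodimeric triplet polymerase ribozyme were built by PCR and transcribed. Each library went through one round of in vitro selection in triplicate: annealing with biotinylated primer, partner subunit and triplets, frozen incubation at −7 °C, gel excision of extended constructs, streptavidin-bead capture and RT-PCR. Input and output libraries were Illumina-sequenced; only genotypes with ≥10 input reads and ≥1 read per output were kept. Fitness is log2(genotype enrichment/wild-type enrichment), using inverse-variance-weighted replicate averages.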
For GACCUAUCUGCCAUGAGAGCUCGAGAACAUCUUCGGAUGCAGAGGAGGCAGGCUUAGGUGGCGCGAUAGCGCCAACGUCCUCAACCUCCAAUGCAUCCCACCACAUGAUGAUGCCUGAAGUGCCUUGGUUUUUUG, the “polymerase ribozyme fitness (log ratio)” value was -1.44.
In the case of GACCUAUCUGCCCUCAGAGCUGGAGAACAUCUUCGGAUGCAGAGGAGGCAGGCUUCGGUGGCGCGUUAGCGCCAACGUCCUCAACCUCCAAUGCAUCCCACCACAUGAUGAAGCCUGAAGAGCCUGGGUUUUUUG, the “polymerase ribozyme fitness (log ratio)” value is reported as -3.51.
With GACCUAUCUGCCCUCAGAGCUCGAGAACAUAUUCGGAUGCAGAGGAGGCAGGCUUCGGUGGCGCGAUAGCACCAACGUCCUCACCCUCCAAUGCAUCCCACCACAUGAUGAUGCCUGAAGAGCAUUGGUUUUUUG the “polymerase ribozyme fitness (log ratio)” value was -6.43.
In the case of GACCUAUAUGCCCUCAGAGCUCGAGAACAUCUUCGGAUGCAGAGGAGGCAGGCUUCGGUGGCGCGAUAGCGCCAACGUCCUCAACCUCCAAUGCAUCCCACCACAUGAUGAUGCCUGAAGAGCCUUGGUUUUUUG, the “polymerase ribozyme fitness (log ratio)” value is reported as 0.0555.
With GACCUAUCUGCCCUCAGAGCUCGAGAUCAUCUUCGGAUGCAGAGGAGGCAGGCUUCGGUGGCGCGAUAGCGCCAACGUCCUCAACCUCCAAUGCAUCCCACCACAUGAUGAUGCCUGAAGAGCCUUGGUUUUUUG the “polymerase ribozyme fitness (log ratio)” value was -3.65.
With GACCUAUCUGCCCUCAGAGCUCGAGAACCUCUUCGGAUGCAGAGGAGGCAGGCUUCGGUGGCGCGAUAGCGCCAACGGCCUCAACCUCCAAUGCAUCCCAUCACAUGAUGAUGCCUGAAGAGCCUUGGUUUUUUG the “polymerase ribozyme fitness (log ratio)” value was -3.29.
With GACCUAUCUGGCCUCUGAGCUCGAGAACAUCUUCGGAUGCAGAGGAGGCAGGCUUCGGUUGCGCGAUAGCGCCAACGUCCUCAACCACCAAUGCAUCCCACCCCAUGAUGAUGCCUGAAGAGCCUUGGUUUUUUG the “polymerase ribozyme fitness (log ratio)” value was -5.47.
In the case of GACCUAUGUGCCCUCAGAGCUCGAGAACAUCUUCGGAUGCAGAGGAGGCAGGCUUCGGUGGCUCGAUAGCGCCAACGUCCUCAACCUCCAAUGCAUCCCACCACAUGAUGAUGCCUGAAGAGCCUUGGUUUUUUG, the “polymerase ribozyme fitness (log ratio)” value is reported as -0.752.
For GACCUAUCUGCCCUCAGAGCUCGAGAACAUCUUCGGAUGCAGAGGAGGCAGGCUUCGGUGGCGCGAUAGCGCCAACGUCCUCAACCUCCAAUGCUUCCCACCACAUGAUGAUGCCUGAAGAGCCUUGGUUUUUUG, the “polymerase ribozyme fitness (log ratio)” value was -1.24.
With GACCUAUCUGCCCUCAGAGCUCGAGAACAUCUUCGGAUGCAGAGGAGGCAGGCUUCGGUGGCGCGAUAGCGGCAACGUCCUCAACCUCCAAUGCAUCCCACCACAUGAUGAUGCCUAAAGAGCCUUGGUUUUUUG the “polymerase ribozyme fitness (log ratio)” value was -1.96.
For GACCUAUCUGCCCUCAGAGCUCGAGAACAUCUUCGGAUGCAGAGGAGGCAGGCUUCGGUGGCGCGAUAGCGCCAACGUCCUCAACCUCCAAUGCAUCCCACCACAUGAUGAUGCCUGAAGAGCAUUGGUUUUUUG, the “polymerase ribozyme fitness (log ratio)” value was 2.04.
In the case of GACCUAUCUGCCCUCAGAGCUCGAGAACAUCUUCGGAUGCAGAGGAGGCAGGAUUCGGUGGAGCGAUAGCGCCAACGUCCUCAACCUCCAAUGCAUCCCACCACAUGAUUAUGCCUGAAGAGCCUUGGUCUUUUG, the “polymerase ribozyme fitness (log ratio)” value is reported as -4.41.
For GACCUAUCUGCCCUCAGAGCUCGAGAACAUCUUCGGAUGCAGAGGAGGCAGGCUUAGGUGGCGCGAUAGCGCCAACGUCCUCAACCUCCAAUGCAUCCCACAACAUGAUGAUGCCCGAAGAGCCUUGGUUUUUUG, the “polymerase ribozyme fitness (log ratio)” value was -5.7.
With GACCUAUCUGACCUCAGAGCUCGAGAACAUCUUCGGAUGCAGAGGAGGCAGGCUUCGUUGGCGCGAUAGUGCCAACGUCCUCAACCUCCAAUGCAUCCCAUCACAUGAUGAUGCCUGAAGAGCCUUGGUUUUUUG the “polymerase ribozyme fitness (log ratio)” value was -2.57.
For GACCUAUCUGCCCUCAGAGCUCGAGAACAUCUUCGGAUGCAGAGGAGGCAGGCUUCGGUGGCGCGAUAGCGCCAACGUCCUCAACCUGCAAUGCAUCCCACCACAUGAUGAUGCCUGAACAGCCUUGGUUUUUUG, the “polymerase ribozyme fitness (log ratio)” value was 0.286.
With GACCUAUCUGCCCUCAGAGCUAGAGAACAUCUUCGGAUGCAGAGGAGGCAGGCUUCGGUGGCGCGAUAGCGCCAACGUCCUCAACCUCCAAUGCAUCCCACCACAUGAUGAUGCCUGAAGAGCCUUGGUUUUUUG the “polymerase ribozyme fitness (log ratio)” value was -3.71.
In the case of GACCUAUCUGCCCUUUGAGCUCGAGAACAUCUUCGGAUGCAGAGGAGGCAGGCUUCGGUGGCGCGAUAGCGCCAACGUCCUCAACCUCCAAUGCAUCCCACCACAUGAUGAUGCCUGAAGAGCCAUGGUUUUUUG, the “polymerase ribozyme fitness (log ratio)” value is reported as -4.8.
For GACCUAUCUGCCCUCAGAGCUCGAGAACAUCUUCGGAUGCAGAGGAGGCAGGCUUCGGUGGCGCGAUAGCGCCAACGUCCUCCACCUCCAAUGCAUCCCACCACAUGAUGAUGCCUGAAGAGCCUUGGUUUUUUG, the “polymerase ribozyme fitness (log ratio)” value was -0.98.
With GACCUAUCUGACCUCAGAGCUCGAGAACAUCUUCGGAUGCACAGGAGGCAGGCUUCGGUGGCACGAUAGCGCCAACGUCCUCAACCUUCAAUGCAUCCCACCACAAGAUGAUGCCUGAAGCGCCAUGGUUUUUUG the “polymerase ribozyme fitness (log ratio)” value was -5.18.
For GACCUAUCUGCUCUCAGAGCUCGAGAACAUCUUCGGAUGCAGAGGAGGCAGGCUUCGGUGGCGCGAUAGCGCCAACGUCCUCAACCUCCAAUGCAUCCCACCACAUGAUGAUGCCUGAAGAGCCAUGGUUUUUUG, the “polymerase ribozyme fitness (log ratio)” value was -0.727.
With GACCUAUCUGCCCUCAGAGCUCGAGAACAUCUUCGGAUGCAGAGGAGGCAGGCUUCGGUGGCGCGAUAGCGCCAACGUCCUCAACCUGCAAUGCAUCCCACCACAUGAUGAUGCCUAAACAGCCUUGGUUUUUUG the “polymerase ribozyme fitness (log ratio)” value was -4.11.

Source: the RNAGym collection of RNA variant scans (doi:10.1073/pnas.2313332121)
